Reference: article PMC5454378, “Histone deacetylase 10 structure and molecular function as a polyamine deacetylase” (Nature Communications, 2017)

Assays:
Test in all cases: purified protein, by the assay type
[1] = substrate: CC(=O)NCCCC[C@H](NC(C)=O)C(N)=O; parameters: discontinuous LC-MS deacetylation assay, dansylated product quantified, steady-state kinetics; details: 50.0 °C
Procedure: To study steady-state kinetics with non-fluorogenic peptide substrates and acetylpolyamines, a discontinuous LC–MS was employed based on the protocol of assaying nonfluorogenic acetyllysine peptide substrates for HDAC6 (ref. [17]). Assays were performed in triplicate. Briefly, 5 μl of enzyme (0.050–20 μM) in HEPES buffer (20 mM HEPES (pH 7.5), 100 mM NaCl, 5 mM KCl, 1 mM MgCl2) was added to 35 μl of substrate solution to initiate the reaction. […] The deacetylation products were derivatized with dansyl chloride at 50 °C for 2 hrs. The deacetylation products were detected by LC–MS using a Waters SQD equipped with an Acquity UPLC (Waters, Milford, MA, USA) and quantified by using the standard curves generated from the mass signals of the corresponding deacetylated polyamines and peptides. Inhibition of HDAC10 activity was measured by using 0.49 μM zHDAC10 with 192 μM N^8-acetylspermidine. Data were analysed by logistic regression for IC50 determination and the inhibition constant Ki was calculated based on the Cheng-Prusoff equation, Ki=IC50 / (1+[S]/KM)[45]. Assays were performed in triplicate at room temperature.

[2] = substrate: CC(=O)NCCCCNCCCNC(C)=O; parameters: steady-state kinetics of acetylpolyamine deacetylation, discontinuous LC-MS after dansyl chloride derivatization; details: 50.0 °C
Procedure: (§1) To study steady-state kinetics with non-fluorogenic peptide substrates and acetylpolyamines, a discontinuous LC–MS was employed based on the protocol of assaying nonfluorogenic acetyllysine peptide substrates for HDAC6 (ref. [17]). Assays were performed in triplicate. Briefly, 5 μl of enzyme (0.050–20 μM) in HEPES buffer (20 mM HEPES (pH 7.5), 100 mM NaCl, 5 mM KCl, 1 mM MgCl2) was added to 35 μl of substrate solution to initiate the reaction. After incubation for 15–60 min at room temperature, the reaction was quenched by addition of 50 μl of 20 mM dansyl chloride dissolved in acetonitrile followed by 10 μl of NaHCO3 (1.6 M, pH 10.0). The deacetylation products were derivatized with dansyl chloride at 50 °C for 2 hrs. The deacetylation products were detected by LC–MS using a Waters SQD equipped with an Acquity UPLC (Waters, Milford, MA, USA) and quantified by using the standard curves generated from the mass signals of the corresponding deacetylated polyamines and peptides. Inhibition of HDAC10 activity was measured by using 0.49 μM zHDAC10 with 192 μM N^8-acetylspermidine. Data were analysed by logistic regression for IC50 determination and the inhibition constant Ki was calculated based on the Cheng-Prusoff equation, Ki=IC50 / (1+[S]/KM)[45]. Assays were performed in triplicate at room temperature. We next tested the PDAC activity of hHDAC10 and zHDAC10 against several polyamine substrates using the LC–MS assay (Fig. 2, Supplementary Fig. 3 and Supplementary Table 1). […] For hHDAC10 and zHDAC10, kcat/KM=2,900±200 and 4,600±300 M^−1 s^−1, respectively; in comparison, N^1-acetylspermidine was a poor substrate with kcat/KM=24±5 and 7±2 M^−1 s^−1, respectively. Substrate specificity trends observed for zHDAC10 and hHDAC10 matched those of the previously reported mammalian N^8-acetylspermidine deacetylase activity. […] As a negative control, we examined the N^8-acetylspermidine deacetylase activity of human and zebrafish HDAC6 (ref. [17]). HDAC6 preferentially catalyses the deacetylation of the peptide substrate RGK(ac)-AMC with a catalytic efficiency >100-fold greater than that for the deacetylation of N^8-acetylspermidine. Therefore, HDAC6 is clearly an acetyllysine deacetylase and HDAC10 is an N^8-acetylspermidine deacetylase. It is notable that the molecular function of HDAC10 coincides with the cellular function of the cytosolic PDAC indicated in Fig. 1a.

[3] = substrate: CC(=O)NCCCCN; parameters: steady-state kinetics of acetylpolyamine deacetylation, discontinuous LC-MS after dansyl chloride derivatization; details: 50.0 °C
Procedure: as §1

[4] = substrate: CC(=O)NCCCCNCCCN; parameters: steady-state kinetics of acetylpolyamine deacetylation, discontinuous LC-MS after dansyl chloride derivatization; details: 50.0 °C
Procedure: as §1

[5] = substrate: CC(=O)NCCCCCCCCN; parameters: steady-state kinetics of acetylpolyamine deacetylation, discontinuous LC-MS after dansyl chloride derivatization; details: 50.0 °C
Procedure: as §1

[6] = substrate: CC(=O)NCCCCCN; parameters: steady-state kinetics of acetylpolyamine deacetylation, discontinuous LC-MS after dansyl chloride derivatization; details: 50.0 °C
Procedure: as §1

[7] = substrate: CCCCNC(C)=O; parameters: steady-state kinetics of acetylpolyamine deacetylation, discontinuous LC-MS after dansyl chloride derivatization; details: 50.0 °C
Procedure: as §1

[8] = substrate: CC(=O)NCCCC[C@H](NC(=O)[C@H](C)NC(=O)CNC(C)=O)C(=O)Nc1ccc2c(C)cc(=O)oc2c1; parameters: fluorogenic AMC-conjugated acetyllysine peptide deacetylation, steady-state kinetics

B1: zHDAC10 (Danio rerio) (protein)
chain: ASGSALIFDEEMSRYKLLWTDPACEIEVPERLTVSYEALRTHGLAQRCKAVPVRQATEQEILLAHSEEYLEAVKQTPGMNVEELMAFSKKYNDVYFHQNIYHCAKLAAGATLQLVDSVMKREVRNGMALVRPPGHHSQRSAANGFCVFNNVAIAALYAKKNYNLNRILIVDWDVHHGQGIQYCFEEDPSVLYFSWHRYEHQSFWPNLPESDYSSVGKGKGSGFNINLPWNKVGMTNSDYLAAFFHVLLPVAYEFDPELVIVSAGFDSAIGDPEGEMCALPEIFAHLTHLLMPLAAGKMCVVLEGGYNLTSLGQSVCQTVHSLLGDPTPRISGLGTACDSALESIQNVRNVQSSYWSSFKHLAQSETNPKRPRLDATNGGPKESSEPASESNPKKTAQDIVWPEPLKRMPASVRTVVVPPPGVELTLPKNCQHSGDISESTAKEVQRIRDKHFHDLTDQNILRSLGNIISVLDRMMRSDEVCNGCVVVSDLSVSVQCALQHALTEPAERVLVVYVGDGELPVKTNDGKVFLVQICTKETEDKCVNRLSLCLREGESLTAGFMQALLGLILPVAYEFNPALVLGIVGETAAKTGLMTVWGHMTCLIQGLARGRTLTLLQGYDKDLLELTVSALSGASISPLGPLRALKPEDVEMMEKQRQRLQERWGLLRCTVSES
notes: full-length, residues 2–675
- Km [1]: 80 ± 10 µM
- kcat [1]: 0.013 s⁻¹
- kcat/Km [1]: 160 M⁻¹ s⁻¹
- Km [2]: 180 ± 40 µM
- kcat [2]: 0.48 ± 0.08 s⁻¹
- kcat/Km [2]: 2700 ± 300 M⁻¹ s⁻¹
- Km [3]: 160 ± 50 µM
- kcat [3]: 0.7 ± 0.1 s⁻¹
- kcat/Km [3]: 4200 ± 900 M⁻¹ s⁻¹
- Km [4]: 130 ± 20 µM
- kcat [4]: 0.58 ± 0.03 s⁻¹
- kcat/Km [4]: 4600 ± 300 M⁻¹ s⁻¹
- Km [5]: 170 ± 40 µM
- kcat [5]: 0.21 ± 0.02 s⁻¹
- kcat/Km [5]: 1200 ± 200 M⁻¹ s⁻¹
- Km [6]: 90 ± 30 µM
- kcat [6]: 0.37 ± 0.04 s⁻¹
- kcat/Km [6]: 3900 ± 300 M⁻¹ s⁻¹
- Km [7]: 900 ± 200 µM
- kcat [7]: 0.06 ± 0.02 s⁻¹
- kcat/Km [7]: 60 ± 20 M⁻¹ s⁻¹
- Km [8]: 22 ± 4 µM
- kcat [8]: 0.00033 ± 2e-05 s⁻¹
- kcat/Km [8]: 15 ± 2 M⁻¹ s⁻¹
